Results on 2 molecules are retold here after article PMC4674680, “An in cellulo-derived structure of PAK4 in complex with its inhibitor Inka1” (Nature Communications, 2015).

Test [1] has as its target T1, 6His–PAK4cat (PAK4 286–591) (human, UniProt O96013 286-591).
T1 construct: human PAK4 catalytic domain, residues 286–591, in pSY5 (His tagged); Residues 297–589 are seen in PDB 4XBU; also called purified PAK4; source: E. coli BL21-CodonPlus(DE3), purified (Ni-NTA; semi-automated Akta system for crystallization)
Put plainly: crystal structure; in-vitro crystals, hanging drop, 6His–PAK4cat 5 mg/ml with 15-fold molar excess of peptide and two times molar excess of ATP, 0.1 M Tris–HCl pH 8.5, 12% PEG 8000, 25 °C, space group P4_(1)2_(1)2. As to conditions: both partners purified.

The target of test [2] is T1, 6His–PAK4cat (PAK4 286–591). Nature of the test: kinase inhibition assay; 50 nM purified PAK4cat, 10 μM GST-Raf1S338 peptide, 10 μM ATP (γ32P), 25 mM HEPES pH 7.3, 50 mM KCl, 10 mM MgCl2, 30 °C, 20 min; inhibitor pre-incubated with the kinase on ice 10 min; values from the intercepts of the inhibition graphs. The settings on record: both partners purified.

T1 sequence (O96013 286-591): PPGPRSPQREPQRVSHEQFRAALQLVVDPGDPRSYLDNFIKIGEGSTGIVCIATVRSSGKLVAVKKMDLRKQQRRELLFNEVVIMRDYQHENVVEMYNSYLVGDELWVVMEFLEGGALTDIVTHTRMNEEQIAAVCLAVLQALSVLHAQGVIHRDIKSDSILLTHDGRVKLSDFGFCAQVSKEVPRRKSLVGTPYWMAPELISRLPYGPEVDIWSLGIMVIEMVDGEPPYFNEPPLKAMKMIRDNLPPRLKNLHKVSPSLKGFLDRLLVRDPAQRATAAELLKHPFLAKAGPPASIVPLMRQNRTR

B1: iBox 23mer synthetic peptide (peptide)
peptide: AEDWTAALLNRGRSRQPLVLGDW
notes: synthetic peptide of the amino-terminal part of the human Inka1 iBox (iBox is 166–203); residues 178–189 are seen in the structure; also called iBox24; synthetic iBox 24mer peptide; source: synthetic peptide
Consider B1, for which the binding result in test [1] was “binds”.

B2: GST-iBox (Inka1 166–203) (domain or fragment)
chain: EAEDWTAALLNRGRSRQPLVLGDNCFADLVHNWMELPE
modifications: GST carrier left out. Limits 166-203 are the paper's, taken from the 4XBR fusion: Flag/SGS 1-12, iBox 13-50, EF linker 51-52, PAK4 278-591 from 53 (12+38+2+314=366). Entity position = paper number …
For orientation: Ki means the equilibrium dissociation constant of an inhibitor or competing ligand from its target. A higher Ki goes with weaker binding. In test [2], B2 came in with an inhibition constant Ki of 30 nM.
